Tests used:
[1] = target: endogenous BP-53 of human serum (human) (UniProt P17936); test: DEAE-Sephadex peaks A and B mixed for 60 min at 22° C, Superose-12, BP-53 RIA
[2] = target: IGF affinity column loaded with BP-53 (BP-53 non-covalently bound to agarose-IGF) (human) (UniProt P17936); test: affinity chromatography of DEAE-Sephadex ALS fractions on the IGF column loaded with BP-53
[3] = target: acid-labile sub-unit (ALS) of insulin like growth factor binding protein complex (human) (UniProt P35858); test: competition of acidified-neutralized serum with cross-linked BP-53-IGF-I tracer in the routine ALS assay
acid-labile sub-unit (ALS) of insulin like growth factor binding protein complex (human), sequence (P35858 28-605, one chain of several): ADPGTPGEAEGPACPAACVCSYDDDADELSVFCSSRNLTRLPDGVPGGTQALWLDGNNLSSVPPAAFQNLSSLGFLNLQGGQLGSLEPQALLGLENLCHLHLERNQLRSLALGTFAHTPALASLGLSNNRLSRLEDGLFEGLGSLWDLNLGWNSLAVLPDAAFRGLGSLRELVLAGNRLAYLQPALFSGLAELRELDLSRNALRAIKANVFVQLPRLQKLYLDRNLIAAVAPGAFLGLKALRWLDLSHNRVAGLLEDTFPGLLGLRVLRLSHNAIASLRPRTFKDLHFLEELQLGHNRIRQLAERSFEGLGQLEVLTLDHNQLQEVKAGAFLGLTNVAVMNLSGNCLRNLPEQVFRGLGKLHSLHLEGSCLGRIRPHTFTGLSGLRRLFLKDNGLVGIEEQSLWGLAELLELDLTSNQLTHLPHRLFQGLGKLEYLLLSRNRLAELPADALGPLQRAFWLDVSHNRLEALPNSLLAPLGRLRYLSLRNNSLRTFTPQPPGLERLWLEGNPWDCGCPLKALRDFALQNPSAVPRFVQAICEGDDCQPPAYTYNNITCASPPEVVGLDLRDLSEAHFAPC

acid-labile sub-unit (ALS) of insulin like growth factor binding protein complex, sequence (P35858 28-605, one chain of several): as above

| percent of BP-53 activity shifted from 30-60K to 150K [1] | percent of ALS activity retained [2] | IC50 [3] | concentration for full displacement [3] | Substance |
| --- | --- | --- | --- | --- |
| > 50% | > 90% | – | – | acid-labile sub-unit (ALS) of insulin like growth factor binding protein complex (from UniProt P35858 28-605) |
| – | – | 0.2 to 0.25 µg/mL | 1 µg/mL | endogenous BP-53 of human serum (from UniProt P17936 28-291) |

From patent US6465423
